# B1: Pistol ribozyme (parent)
# chain: GGGUCGUUGUUCCAUAAUCGCGUGGAUAUGGCACGCAAGUUUCUACCGGGCACCGUAAAUGUCCGACUGGAGCCGUUCGGGCGGCUAUAAACAGACCUCAGGCCCGAAGCGUGGCGGCACCUGCCGCCGGUGGUAAAAAAGAUCGGAAGAGCACACGUCU
# Variants of: B1
# Assay: aptazyme ON/OFF ratio, guanine; higher = stronger switching; co-transcriptional cleavage with and without guanine
row,Variant,aptazyme ON/OFF ratio
1,U7C U8C G9C U10A C13U,1.35
2,U7C U8C G9C U10A C13A,1.16
3,U7C U8C G9C U10A C13G,1.15
4,U7C U8C G9A U11C C12G C13G,1.29
5,U7C U8C G9A U11C C12G C13A,1.34
6,U7C U8C G9A U11C C12G C13U,1.23
7,U7C U8C G9A U10G U11A C12U C13U,1.23
8,U7C U8C G9A U11G C13G,1.28
9,U7C U8C G9A U11G C13A,1.3
10,U7C U8C G9A U11G C13U,1.27
11,U7C U8C G9C U10A U11C C12U C13A,1.13
12,U7C U8C G9C U10A U11C C12U C13G,1.13
13,U7C U8C G9C U10A U11C C12U C13U,1.17
14,U7C U8C G9A U11G C12A C13A,1.3
15,U7C U8C G9A U11G C12A C13G,1.25
16,U7C U8C G9A U11G C12A C13U,1.59
17,U7C U8C G9C U10A,2.7
18,U7C U8C G9C U10C,3.53
19,U7C U8C G9C C12G C13G,1.07
20,U7C U8C G9C C12G C13U,1.07
21,U7C U8C G9C C12G C13A,1.08
22,U7C U8C G9A U11A C12U C13U,1.21
23,U7C U8C G9A U11A C12U C13G,1.25
24,U7C U8C G9A U11A C12U C13A,1.26

row,Variant,aptazyme ON/OFF ratio
1,U7C U8C G9C U10A U11G C12A C13U,1.14
2,U7C U8C G9C U10A U11G C12A C13A,1.07
3,U7C U8C G9C U10A U11G C12A C13G,1.12
4,U7C U8C G9A U10G U11G C12A C13G,1.1
5,U7C U8C G9A U10G U11G C12A C13U,1.15
6,U7C U8C G9A U10G U11G C12A C13A,1.2
7,U7C U8C G9A U11C C12A C13G,1.19
8,U7C U8C G9A U11C C12A C13A,1.29
9,U7C U8C G9A U11C C12A C13U,1.38
10,U7C U8C G9C U10A C12A C13A,1.09
11,U7C U8C G9C U10A C12A C13G,1.14
12,U7C U8C G9C U10A C12A C13U,1.21
13,U7C U8C G9A U11C C12U C13A,1.19
14,U7C U8C G9A U11C C12U C13U,1.18
15,U7C U8C G9A U11C C12U C13G,1.08
16,U7C U8C G9C U10A U11C C12G,1.21
17,U7C U8C G9C U10A U11C C12A,1.21
18,U7C U8C G9C U10A U11C C12U,1.17
19,U7C U8C G9A U10G U11C C12G C13U,1.19
20,U7C U8C G9A U10G U11C C12G C13G,1.26
21,U7C U8C G9A U10G U11C C12G C13A,1.17
22,U7C U8C G9C U10A C12G C13A,1.11
23,U7C U8C G9C U10A C12G C13U,1.1
24,U7C U8C G9C U10A C12G C13G,1.17

row,Variant,aptazyme ON/OFF ratio
1,U7C U8C G9C C13G,1.09
2,U7C U8C G9C C13A,1.09
3,U7C U8C G9C C13U,1.05
4,U7C U8C G9C U10A U11C,1.39
5,U7C U8C G9C U10A U11G,1.32
6,U7C U8C G9C U10A U11A,1.44
7,U7C U8C G9A U10G U11C C12U C13U,1.26
8,U7C U8C G9A U10G U11C C12U C13A,1.29
9,U7C U8C G9A U10G U11C C12U C13G,1.18
10,U7C U8C G9C U10A U11G C12A,1.16
11,U7C U8C G9C U10A U11G C12U,1.05
12,U7C U8C G9C U10A U11G C12G,1.14
13,U7C U8C G9C C12U C13G,1.11
14,U7C U8C G9C C12U C13U,1.14
15,U7C U8C G9C C12U C13A,1.16
16,U7C U8C G9A U10G U11G C12G C13G,1.14
17,U7C U8C G9A U10G U11G C12G C13A,1.15
18,U7C U8C G9A U10G U11G C12G C13U,1.11
19,U7C U8C G9C U10C C12A C13A,1.06
20,U7C U8C G9C U10A C12U,1.26
21,U7C U8C G9C U10A C12G,1.16
22,U7C U8C G9C U10A C12A,1.11
23,U7C U8C G9A U11A C12A C13A,1.43
24,U7C U8C G9A U11A C12A C13G,1.18

row,Variant,aptazyme ON/OFF ratio
1,U7C U8C G9A U11A C12A C13U,1.38
2,U7C U8C G9C U10A U11A C12A,1.21
3,U7C U8C G9C U10A U11A C12G,1.08
4,U7C U8C G9C U10A U11A C12U,1.09
5,U7C U8C G9A U10G U11G C12G,1.16
6,U7C U8C G9A U10G U11G C12U,1.25
7,U7C U8C G9A U10G U11G C12A,1.23
8,U7C U8C G9A U11G C12G,1.35
9,U7C U8C G9A U11G C12U,1.34
10,U7C U8C G9A U11G C12A,1.37
11,U7C U8C G9C U10A C12U C13G,1.13
12,U7C U8C G9C U10A C12U C13A,1.11
13,U7C U8C G9C U10A C12U C13U,1.11
14,U7C U8C G9C U10A U11G C13A,1.13
15,U7C U8C G9C U10A U11G C13U,1.17
16,U7C U8C G9C U10A U11G C13G,1.14
17,U7C U8C G9A U11A C12G,1.21
18,U7C U8C G9A U11A C12A,1.21
19,U7C U8C G9A U11A C12U,1.06
20,U7C U8C G9A U11A C13A,1.26
21,U7C U8C G9A U11A C13U,1.32
22,U7C U8C G9A U11A C13G,1.13
23,U7C U8C G9A U11G C12G C13G,1.11
24,U7C U8C G9A U11G C12G C13U,1.11

row,Variant,aptazyme ON/OFF ratio
1,U7C U8C G9A U11G C12G C13A,1.23
2,U7C U8C G9A U11C C12A,1.51
3,U7C U8C G9A U11C C12G,1.17
4,U7C U8C G9A U11C C12U,1.66
5,U7C U8C G9C U10A U11G C12U C13G,1.08
6,U7C U8C G9C U10A U11G C12U C13U,1.1
7,U7C U8C G9C U10A U11G C12U C13A,1.15
8,U7C U8C G9A U11A C12G C13U,1.23
9,U7C U8C G9A U11A C12G C13G,1.17
10,U7C U8C G9A U11A C12G C13A,1.1
11,U7C U8C G9A U10G U11C C12A C13U,1.17
12,U7C U8C G9A U10G U11C C12A C13A,1.2
13,U7C U8C G9A U10G U11C C12A C13G,1.07
14,U7C U8C G9C U10A U11A C12U C13A,1.03
15,U7C U8C G9C U10A U11A C12U C13U,1.17
16,U7C U8C G9C U10A U11A C12U C13G,1.2
17,U7C U8C G9C U10A U11C C12G C13U,1.2
18,U7C U8C G9C U10A U11C C12G C13A,1.21
19,U7C U8C G9C U10A U11C C12G C13G,1.15
20,U7C U8C G9C U10A U11C C13A,1.08
21,U7C U8C G9C U10A U11C C13U,1.1
22,U7C U8C G9C U10A U11C C13G,1.1
23,U7C U8C G9A U10G U11G C13G,1.23
24,U7C U8C G9A U10G U11G C13U,1.29

row,Variant,aptazyme ON/OFF ratio
1,U7C U8C G9A U10G U11G C13A,1.18
2,U7C U8C G9C C12A C13U,1.13
3,U7C U8C G9C C12A C13A,1.08
4,U7C U8C G9C C12A C13G,1.06
5,U7C U8C G9A U11C C13G,1.05
6,U7C U8C G9A U11C C13U,1.29
7,U7C U8C G9A U11C C13A,1.22
8,U7C U8C G9C,1.13
9,U7C U8C G9A U10G U11C C13U,1.17
10,U7C U8C G9A U10G U11C C13A,1.24
11,U7C U8C G9A U10G U11C C13G,1.01
12,U7C U8C G9C U10C C12A,1.08
13,U7C U8C G9A U11A,1.16
14,U7C U8C G9A U11G,1.62
15,U7C U8C G9A U11C,1.82
16,U7C U8C G9A U10G U11A C13G,1.25
17,U7C U8C G9A U10G U11A C13U,1.07
18,U7C U8C G9A U10G U11A C13A,1.1
19,U7C U8C G9C U10A U11A C12A C13U,1.13
20,U7C U8C G9C U10A U11A C12A C13A,1.09
21,U7C U8C G9C U10A U11A C12A C13G,1.03
22,U7C U8C G9C U10A U11A C12G C13U,1.09
23,U7C U8C G9C U10A U11A C12G C13G,1.19
24,U7C U8C G9C U10A U11A C12G C13A,1.11

row,Variant,aptazyme ON/OFF ratio
1,U7C U8C G9A U10G U11C C12U,1.43
2,U7C U8C G9A U10G U11C C12G,1.12
3,U7C U8C G9A U10G U11C C12A,1.54
4,U7C U8C G9C U10A U11C C12A C13U,1.13
5,U7C U8C G9C U10A U11C C12A C13G,1.09
6,U7C U8C G9C U10A U11C C12A C13A,1.09
7,U7C U8C G9A U10G U11G C12U C13U,1.14
8,U7C U8C G9A U10G U11G C12U C13G,1.11
9,U7C U8C G9A U10G U11G C12U C13A,1.1
10,U7C U8C G9C C12G,1.18
11,U7C U8C G9C C12A,1.26
12,U7C U8C G9C C12U,1.17
13,U7C U8C G9C U10A U11A C13U,1.15
14,U7C U8C G9C U10A U11A C13G,1.14
15,U7C U8C G9C U10A U11A C13A,1.13
16,U7C U8C G9A U10G U11C,1.22
17,U7C U8C G9A U10G U11G,1.59
18,U7C U8C G9A U11G C12U C13U,1.35
19,U7C U8C G9A U11G C12U C13G,1.15
20,U7C U8C G9A U11G C12U C13A,1.22
21,U7C U8C G9C U10A U11G C12G C13G,1.12
22,U7C U8C G9C U10A U11G C12G C13U,1.1
23,U7C U8C G9C U10A U11G C12G C13A,1.15
